± gives the half width of the 95% confidence interval.
Experiment: folding stability dG unfold from chymotrypsin proteolysis; higher = more stable
How it was run: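 K50 was inferred by Bayesian fitting of sequencing counts obtained after protease digestion of designed mini-proteins. Unfolding free energy was derived by comparison with a sequence-predicted unfolded-state K50 and a shared folded-state K50, for each protease or both combined. The mini-proteins were under 80 residues, had no cysteine, were carried in a PA-tagged cDNA display construct, and were kept only if AlphaFold2 dimer inter-PAE exceeded 15.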

Row | Sequence | folding stability dG unfold [kcal/mol]
1 | SAGGSAGGSAGGGFYVKEIKGVKFGDKTLYIIRVYDDKGNEVFDVVAPPEVLKNLPPEVLSAGGSAGGSAGG [r7_263_TrMRF] | 1.79 ± 0.037
2 | SAGGSAGGSATQTIPFENPDGHPWTGTVEKRPDGMVKIDLTFPGGEKKEFYIPPGEEIRLPFSAGGSAGGSA [r18_115_TrROS] | 0.0335 ± 0.24
3 | SAGGSAGGSMKIVIVVDEDGSVRVRIEETGEEITFPKGMTAEEIAELLKKKFPNLEVEIVEVPSAGGSAGGS [r12_423_TrROS_Hall] | 3.09 ± 0.12
4 | SAGGMRVERSTSPSGEPVLLITLYLPDGTRVAEAPLRLDPARGGLTEEELEAVLKEIDLPEDVEVELRSAGG [r13_479_JUSTAS] | 0.468 ± 0.16
5 | SGMEQKVEVLRVGAPGEEAVTRFTFKFEDKEFTLEASARLPDGSLVLLDFHVYRDPEGTFRVDVVVYPGFSA [r9_255_TrMRF] | 3.27 ± 0.043
6 | SAGGSAGGSAGGSGQEIPFMLIIKDPDGELDYIIQIEMRRVPNGGVDIEITEIIPAKDISAGGSAGGSAGGS [r4_117_TrROS] | 1.76 ± 0.039
7 | SAGGSAGGSAGGMEVEYNPEELSPESEVTITVTLPGGEKVELKAKIYTNPDGSLSYELESAGGSAGGSAGGS [r10_390_JUSTAS] | 1.58 ± 0.035
8 | SAGGKTVEIKVKVKSLEELKAAIEALKKAGIKDVKVTKIELEKNEDGSLYARVTIEVEPAPEVVEEKESAGG [r13_174_TrROS_Hall] | 3.08 ± 0.073
9 | SAGGKKKKLKIKIVIVAKSKEEAEKLAKELAEKLKELGIKEVEIEVEVIELPPPPPPPKPDSPEYKKKSAGG [r13_6_TrROS_Hall] | -0.131 ± 0.36
10 | SAGGSAGGSAGGGELKYRTLTVDLPVDDPDGRKLPRRLVITFPASNPELAEAFLKALGYSAGGSAGGSAGGS [r10_1062_TrMRF] | 1.75 ± 0.021
11 | SAGGSAGGSAGGEEKTEEEKRKEERLKPAPPLVLELDVEVDGKLYRFRLVNGKLEIEELPSAGGSAGGSAGG [r7_156_TrROS_Hall] | 2.98 ± 0.038
12 | SPPNFRMEQEEIEIEIRFPDGWRVSVEIEIHRMRFPDGDEMLHIDIKVEADPNNPGMRKLAKNLVEEIINSA [r9_908_TrROS] | 2.14 ± 0.21
13 | SAGGSAGGSGWYFHFEVSIWVMEFKYPGPDGKTMTMWFIMIEIKIEIVPPPPITPEDAAKMNGSAGGSAGGS [r12_1060_TrROS] | 4.24 ± 0.087
14 | SAGKEKVLVIPVKVKPGEKIVVKVPSNSKILIIDLESGEIYEIDVPENVEPVFILPENKEYLIAVVFKSAGG [r19_78_TrMRF] | 3.92 ± 0.086
15 | SAGGMSPVKVAEKTYVIPLPSSMTKEEAKEEVKKELVPKGIDKIDIPISEDPNKGTLIIKVTVYKYPNESAG [r5_924_JUSTAS] | 0.757 ± 0.27
16 | YKAKITSVSFIPGEGYIVFNVEVIGPDGIPATFPIVIKIEIEPEEPDPAPPVIKDPNGKVYNPIIPKWFDAS [r1_270_TrMRF] | 2.38 ± 0.054

Row | Sequence | folding stability dG unfold [kcal/mol]
17 | SAGGSAGGSAGKKKIVFLVEDPEEALKTLTFPKDANIEIEKIEVKPLPNGLYEVVIYLKNSAGGSAGGSAGG [r11_150_TrMRF] | 4.59 ± 0.1
18 | SAGGSAGGSAGGGMSIEEVKAKIEEEVGVEVSIEKVSGNTYKITLPKNNETYTIKIPKKSAGGSAGGSAGGS [r10_1032_JUSTAS] | -0.126 ± 0.3
19 | SAGGSAPPAVEEIAKILEELFPGYRVVAEAEPVRDPETDEVLLRIRVAVFDENGKVILELEITLPLSAGGSA [r15_1048_TrMRF] | 4.3 ± 0.068
20 | GFVLIPFRLDDPDVTAGEIAEEVEKALPPEYGPLRLRVFFEDGSVLELEPGEKLGEHFEPDDEILVLVEGDS [r1_56_TrMRF] | 1.37 ± 0.12
21 | SAGGSAGGSAGGPAVPVRTTLPDGRVVYYDPESGLTTIYVPETNETLVRDPATGTVTALSAGGSAGGSAGGS [r10_1057_JUSTAS] | 0.562 ± 0.04
22 | SAGGMKTTLLKEEELPGGVKRKIYLTENSSGGYYYVVTVTTELEPPAESKVSVSSKKISPEELKKLLSAGGS [r16_45_JUSTAS] | 3.55 ± 0.069
23 | SAGGMKKKIVEIEIVEVKYDEETNEVTIKIKIKNENGEEIEIEVTMSKEELEKMTPEELKKLVKELLKSAGG [r13_512_TrROS_Hall] | 2.18 ± 0.24
24 | SAGGSAGGSAGAVLPIKNGWVAVIHMGPDGRVTINIYPPDKPREIEIPVNEPMEIEIFPWSAGGSAGGSAGG [r11_164_TrROS] | 1.3 ± 0.058
25 | SAGMKVLKFKSKEELLEAIDKSPEPVLVINKKTGKKEVLSKEELKKKLKPGDEIEIVLLKDLSPEELKKSAG [r5_677_TrROS_Hall] | 1.78 ± 0.14
26 | SAGGSAGGSAGGSMEITVETYPEVPLVRFTLPGGELVLLPVPPDVPEEEIRALAEALLASAGGSAGGSAGGS [r10_33_JUSTAS] | 0.833 ± 0.15
27 | SAGGSAGGSAGGWIRSPGGWWVNIDIEIFEIPIDKNMSPEMANKFKRVRIIVIEITVVKRSAGGSAGGSAGG [r7_324_TrROS] | 4.7 ± 0.15
28 | SAGGVRKIEFRIDLPDPNVTIEEIVERILKELGLKPEEAIVEVLKIEEVEDEDGIPHIRIDVKIYVPDKSAG [r5_528_TrMRF] | 2.98 ± 0.031
29 | SAGGSAGGSAGGSNMYIEIDEIERNPDDWYQITVKIYNPDNGEKEKITFYMPPGQEIKISAGGSAGGSAGGS [r4_133_TrROS] | 1.51 ± 0.12
30 | SAGGSAGGMKIRIEIEMTPEEVEALREELEKAGYRVEVERREDGRVRVTIEIELPPPPPPPEEESAGGSAGG [r6_8_TrROS_Hall] | 3.75 ± 0.13
31 | SAMLGAEELVRRIAEEIERRLGVPAGFDVPVRVYRPEDALVIDAYIVARGPDGEPLGERRITLVLRPEDSAG [r14_708_TrMRF] | 3.49 ± 0.051
